Reference: patent publication US20050208103A1, “Targeted transscleral controlled release drug delivery to the retina and choroid” (priority 1999, published 2005)

Legend:
[1] = Protein precipitation with trichloroacetic acid to test FITC linkage; set-up: species or system rabbit; conditions: supernatant fluorescence
[2] = assay type: in vitro ADME, rabbit; conditions: not told
Protocol: Dutch-belted rabbits (Pine Acres Rabbitry, Vermont, Mass.), each weighing 2-3 kg, were anesthetized with intramuscular 40 mg/kg ketamine (Abbott, N. Chicago, Ill.) and 10 mg/kg xylazine (Bayer, Shawnee Mission, Kans.). Scleral thickness was measured using a RK-5000 ultrasound pachymeter (KMI Surgical Products, West Chester, Pa.). The eyes were enucleated immediately […] sacrifice and immersed in Unisol (Alcon, Ft. Worth, Tex.) for 10 minutes or less. The adherent muscles were excised and episcleral tissue was removed with a sterile gauze sponge. Areas free of nerve and vessel emissaries were used to obtain 7×12 mm slices of sclera under microscopic caliper guidance. Each piece of sclera was used on the day of isolation.
A 5×10 mm window, 2 mm from the bottom, was created on one face of a spectrophotometry polystyrene cuvette (Sigma, St. Louis, Mo.) using a Bridgeport vertical milling machine (Bridgeport, Bridgeport, Conn.), and a piece of sclera was blotted dry and placed over this window without stretching so as not to induce asymmetric stresses. A small amount of cyanoacrylate tissue adhesive (Ellman International, Hewlett, N.Y.) was applied to the entire boundary of the tissue rim to seal its cut surface to the cuvette and prevent leakage around the sclera, and a second identical cuvette was aligned with the first cuvette and glued in place over the tissue. After the glue polymerized, within 3 to 4 minutes, the cuvette facing the “orbital” surface of the sclera was filled with Unisol. The apparatus was discarded if leakage into the “uveal” chamber was observed. Unisol was replaced with diffusion medium (see below) and the apparatus was incubated at 37° C. in 5% CO2 atmosphere for 1 hour to restore normal hydration and temperature.
Hanks' balanced salt solution without phenol red, containing 1% glutamine-penicillin and streptomycin, tetracycline (48 μg/ml), and aprotinin (1.5 μg/ml) (all from Sigma), was used as the diffusion medium. Tetracycline and aprotinin were excluded from the medium for certain experiments with FITC-BSA to evaluate the effect of these proteolysis inhibitors on scleral permeability. The pH of all solutions ranged from 7.41 to 7.45.
Fluorescein isothiocyanate (FITC) conjugated dextrans ranging in molecular weight from 4 kDa to 150 kDa, FITC-bovine serum albumin (BSA), FITC-rabbit IgG (all from Sigma), rhodamine-conjugated dextran of molecular weight 70 kDa (Molecular Probes, Eugene, Oreg.), and sodium fluorescein (Akorn, Abita Springs, La.) were studied. At least 5 experiments were performed on each compound. […] Samples were protected from light at all times before fluorescence measurements. […]

[3] = Stokes-Einstein radius; cited from earlier work

With “FITC-BSA: Fluorescein isothiocyanate conjugated bovine serum albumin (Sigma)” the “dissociation of the FITC conjugate after diffusion through sclera” value [1] was “no significant dissociation”, the Permeability coefficient [2] was 5.21±1.85 ×10^−6 cm/s and the “Permeability coefficient (mean ± sd)” value [2] was 5.49±2.12 ×10^−6 cm/s. The Molecular radius [3] was 3.62 nm.
In the case of `O=C([O-])c1ccccc1-c1c2ccc(=O)cc-2oc2cc([O-])ccc12.[Na+].[Na+]` [Sodium fluorescein, sodium fluorescein], the Permeability coefficient [2] is listed as 76.3±24.1 ×10^−6 cm/s, the “Permeability coefficient (mean ± sd)” value [2] is listed as 84.5±16.1 ×10^−6 cm/s and the Molecular radius [3] is listed as 0.5 nm.
